The values below come from publication PMC1188057, “Dynamic assembly, localization and proteolysis of the Bacillus subtilis SMC complex” (BMC Cell Biology, 2005).

Data set [1] concerns the molecule itself. The experiment in a line: SEC; analytical gel filtration, Superdex 200 10/300 GL; 50 mM HEPES, 300 mM NaCl, pH 8.0; proteins incubated 30 min; ScpA and ScpB alone or mixed (1:2.5, 1:0.83, 1:10), fractions on SDS-PAGE. For orientation: SEC sorts molecules by how far they enter the pores of the column.
Data set [2] concerns the molecule itself. The experiment in a line: SEC + other: sucrose gradient centrifugation; native weight of purified SMC from sedimentation coefficient 6.6 and Stokes radius 8.5; monomers to dimer.

B1: ScpB (Bacillus subtilis), His-tagged, purified (natural protein, UniProt P35155 1-197, looked up)
chain: MGLDIVNWKAIVEALLYAAGDEGLTKKQLLTVLEIEEPELNTIMADVADEYRGDTRGIELIEYADTYMLSTKKDFAPYLKKLIEVPSKGLSQASLEVLAIVSYKQPITRAEIEEIRGVKSERILHSLVAKALLCEVGRADGPGRAILYGTTPTFLEQFGLKTLDELPPLPENAEEDVLQEEADLFFENFNQTFEDIK
notes: ScpB, Bacillus subtilis; elutes at 65 kDa in gel filtration (dimer)
For orientation: stoichiometry N means a count of units in the complex or per binding partner. Regarding B1, the “stoichiometry N” value in data set [1] was determined as 2.

B2: SMC protein (Bacillus subtilis), His-tagged, purified (natural protein, UniProt P51834 1-1186, looked up)
chain: MFLKRLDVIGFKSFAERISVDFVKGVTAVVGPNGSGKSNITDAIRWVLGEQSARSLRGGKMEDIIFAGSDSRKRLNLAEVTLTLDNDDHFLPIDFHEVSVTRRVYRSGESEFLINNQPCRLKDIIDLFMDSGLGKEAFSIISQGKVEEILSSKAEDRRSIFEEAAGVLKYKTRKKKAENKLFETQDNLNRVEDILHELEGQVEPLKIQASIAKDYLEKKKELEHVEIALTAYDIEELHGKWSTLKEKVQMAKEEELAESSAISAKEAKIEDTRDKIQALDESVDELQQVLLVTSEELEKLEGRKEVLKERKKNAVQNQEQLEEAIVQFQQKETVLKEELSKQEAVFETLQAEVKQLRAQVKEKQQALSLHNENVEEKIEQLKSDYFELLNSQASIRNELQLLDDQMSQSAVTLQRLADNNEKHLQERHDISARKAACETEFARIEQEIHSQVGAYRDMQTKYEQKKRQYEKNESALYQAYQYVQQARSKKDMLETMQGDFSGFYQGVKEVLKAKERLGGIRGAVLELISTEQKYETAIEIALGASAQHVVTDDEQSARKAIQYLKQNSFGRATFLPLSVIRDRQLQSRDAETAARHSSFLGVASELVTFDPAYRSVIQNLLGTVLITEDLKGANELAKLLGHRYRIVTLEGDVVNPGGSMTGGAVKKKNNSLLGRSRELEDVTKRLAEMEEKTALLEQEVKTLKHSIQDMEKKLADLRETGEGLRLKQQDVKGQLYELQVAEKNINTHLELYDQEKSALSESDEERKVRKRKLEEELSAVSEKMKQLEEDIDRLTKQKQTQSSTKESLSNELTELKIAAAKKEQACKGEEDNLARLKKELTETELALKEAKEDLSFLTSEMSSSTSGEEKLEEAAKHKLNDKTKTIELIALRRDQRIKLQHGLDTYERELKEMKRLYKQKTTLLKDEEVKLGRMEVELDNLLQYLREEYSLSFEGAKEKYQLETDPEEARKRVKLIKLAIEELGTVNLGSIDEFERVNERYKFLSEQKEDLTEAKNTLFQVIEEMDEEMTKRFNDTFVQIRSHFDQVFRSLFGGGRAELRLTDPNDLLHSGVEIIAQPPGKKLQNLNLLSGGERALTAIALLFSILKVRPVPFCVLDEVEAALDEANVFRFAQYLKKYSSDTQFIVITHRKGTMEEADVLYGVTMQESGVSKVISVKLEETKEFVQ
notes: SMC, Bacillus subtilis; monomeric size 135 kDa as printed; also called wild-type SMC; wild type SMC
For B2, the “stoichiometry N” value in data set [2] came out at 2.
